# In the RNAGym collection of RNA variant scans (doi:10.1021/acssynbio.7b00057):
# B1: Pistol ribozyme (parent)
# chain: GGGUCGUUGUUCCAUAAUCGCGUGGAUAUGGCACGCAAGUUUCUACCGGGCACCGUAAAUGUCCGACUGGAGCCGUUCGGGCGGCUAUAAACAGACCUCAGGCCCGAAGCGUGGCGGCACCUGCCGCCGGUGGUAAAAAAGAUCGGAAGAGCACACGUCU
# Variants of: B1
# Test: aptazyme ON/OFF ratio, guanine; higher = stronger switching; co-transcriptional cleavage with and without guanine
row,Variant,aptazyme ON/OFF ratio
1,U8G G9U U10G U11C C13G,1.04
2,U8G G9U U10G U11C C13U,1.03
3,U8G G9U U10G U11C C13A,1.02
4,U8G G9U U10G U11C C12G C13A,1.04
5,U8G G9U U10G U11C C12G C13U,1.02
6,U8G G9U U10G U11C C12G C13G,1.03
7,U8G G9U U10G C13U,1.04
8,U8G G9U U10G C13A,1.04
9,U8G G9U U10G C13G,1.03
10,U8G G9U U11C C12A C13A,1.09
11,U8G G9U U11C C12A C13G,1.08
12,U8G G9U U11C C12A C13U,1.11
13,U8G G9U U10C U11G C12U,1.19
14,U8G G9U U10C U11G C12A,1.12
15,U8G G9U U10C U11G C12G,1.25
16,U8G G9U U10C U11A C12A,1.14
17,U8G G9U U10C U11A C12U,1.11
18,U8G G9U U10C U11A C12G,1.12
19,U8G G9U U10G U11A C13G,1.04
20,U8G G9U U10G U11A C13U,1.03
21,U8G G9U U10G U11A C13A,1.01

row,Variant,aptazyme ON/OFF ratio
1,U8G G9U U11A C12A,1.42
2,U8G G9U U11A C12G,1.25
3,U8G G9U U11A C12U,1.36
4,U8G G9U U10A U11G C12U C13G,1.1
5,U8G G9U U10A U11G C12U C13A,1.05
6,U8G G9U U10A U11G C12U C13U,1.13
7,U8G G9U U10G U11G C12U C13G,1.09
8,U8G G9U U10G U11G C12U C13U,1.18
9,U8G G9U U10G U11G C12U C13A,1.09
10,U8G G9U U11A C12U C13G,1.22
11,U8G G9U U11A C12U C13A,1.19
12,U8G G9U U11A C12U C13U,1.35
13,U8G G9U U10C C12A C13U,1.15
14,U8G G9U U10C C12A C13A,1.2
15,U8G G9U U10C C12A C13G,1.15
16,U8G G9U U10C C12G C13G,1.25
17,U8G G9U U10C C12G C13A,1.26
18,U8G G9U U10C C12G C13U,1.36
19,U8G G9U U10C U11A C12A C13A,1.07
20,U8G G9U U10C U11A C12A C13G,1.08
21,U8G G9U U10C U11A C12A C13U,1.09

row,Variant,aptazyme ON/OFF ratio
1,U8G G9U U11A C12A C13G,1.22
2,U8G G9U U11A C12A C13A,1.18
3,U8G G9U U11A C12A C13U,1.1
4,U8G G9U U10A U11G C12G C13U,1.37
5,U8G G9U U10A U11G C12G C13G,1.15
6,U8G G9U U10A U11G C12G C13A,1.05
7,U8G G9U U10G U11G C12G,1.13
8,U8G G9U U10G U11G C12A,1.06
9,U8G G9U U10G U11G C12U,1.2
10,U8G G9U U10C U11A C12U C13G,1.11
11,U8G G9U U10C U11A C12U C13U,1.08
12,U8G G9U U10C U11A C12U C13A,1.08
13,U8G G9U U10G C12U C13U,1.06
14,U8G G9U U10G C12U C13A,1.03
15,U8G G9U U10G C12U C13G,1.02
16,U8G G9U U11A C13G,1.06
17,U8G G9U U11A C13A,1.33
18,U8G G9U U11A C13U,1.25
19,U8G G9U U10G U11A C12U C13A,1.05
20,U8G G9U U10G U11A C12U C13U,1.06
21,U8G G9U U10G U11A C12U C13G,1.05

row,Variant,aptazyme ON/OFF ratio
1,U8G G9U U10C U11C C12A C13G,1.1
2,U8G G9U U10C U11C C12A C13A,1.05
3,U8G G9U U10C U11C C12A C13U,1.02
4,U8G G9U U10C C12G,1.41
5,U8G G9U U10C C12U,1.09
6,U8G G9U U10C C12A,1.19
7,U8G G9U U10A U11G C12G,1.27
8,U8G G9U U10A U11G C12U,1.24
9,U8G G9U U10A U11G C12A,1.12
10,U8G G9U U10C U11C C12G C13A,1.07
11,U8G G9U U10C U11C C12G C13G,1.1
12,U8G G9U U10C U11C C12G C13U,1.09
13,U8G G9U U10C U11C C13A,1.04
14,U8G G9U U10C U11C C13G,1.04
15,U8G G9U U10C U11C C13U,1.02
16,U8G G9U U10A U11G,1.16
17,U8G G9U U10A U11G C12A C13A,1.05
18,U8G G9U U10A U11G C12A C13U,1.12
19,U8G G9U U10A U11G C12A C13G,1.06
20,U8G G9U U10C U11G C12A C13G,1.11
